Experimental data: patent US11306331B2, “Processes for the production of hydroxycinnamic acids using polypeptides having tyrosine ammonia lyase activity” (CysBio ApS, priority 2014, dated 2022)

T1: Herpetosiphon aurantiacus HaXAL1 tyrosine ammonia lyase (Protein GI 159898407), SEQ ID NO: 2, His-tagged (N-terminal tag SEQ ID NO: 11) (Herpetosiphon aurantiacus, UniProt A9AUJ9)
T1 sequence (A9AUJ9 1-552): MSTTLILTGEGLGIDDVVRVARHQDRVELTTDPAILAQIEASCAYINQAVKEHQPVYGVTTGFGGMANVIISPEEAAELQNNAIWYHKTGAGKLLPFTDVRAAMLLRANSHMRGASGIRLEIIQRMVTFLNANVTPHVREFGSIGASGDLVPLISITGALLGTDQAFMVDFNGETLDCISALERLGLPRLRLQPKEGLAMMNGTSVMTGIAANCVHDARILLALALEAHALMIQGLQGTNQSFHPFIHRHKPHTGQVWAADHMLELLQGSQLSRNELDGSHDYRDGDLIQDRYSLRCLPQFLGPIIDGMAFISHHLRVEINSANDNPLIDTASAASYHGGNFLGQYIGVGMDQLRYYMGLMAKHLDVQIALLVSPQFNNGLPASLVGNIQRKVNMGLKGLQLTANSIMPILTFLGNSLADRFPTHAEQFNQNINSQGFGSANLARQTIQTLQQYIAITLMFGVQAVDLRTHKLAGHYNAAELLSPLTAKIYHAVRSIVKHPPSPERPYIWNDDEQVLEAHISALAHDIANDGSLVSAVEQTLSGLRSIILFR

B1: Flavobacterium johnsoniae FjXAL tyrosine ammonia lyase (Protein GI 146298870), SEQ ID NO: 1, His-tagged (N-terminal tag SEQ ID NO: 11) (Flavobacterium … (protein)
chain: MNTINEYLSLEEFEAIIFGNQKVTISDVVVNRVNESFNFLKEFSGNKVIYGVNTGFGPMAQYRIKESDQIQLQYNLIRSHSSGTGKPLSPVCAKAAILARLNTLSLGNSGVHPSVINLMSELINKDITPLIFEHGGVGASGDLVQLSHLALVLIGEGEVFYKGERRPTPEVFEIEGLKPIQVEIREGLALINGTSVMTGIGVVNVYHAKKLLDWSLKSSCAINELVQAYDDHFSAELNQTKRHKGQQEIALKMRQNLSDSTLIRKREDHLYSGENTEEIFKEKVQEYYSLRCVPQILGPVLETINNVASILEDEFNSANDNPIIDVKNQHVYHGGNFHGDYISLEMDKLKIVITKLTMLAERQLNYLLNSKINELLPPFVNLGTLGFNFGMQGVQFTATSTTAESQMLSNPMYVHSIPNNNDNQDIVSMGTNSAVITSKVIENAFEVLAIEMITIVQAIDYLGQKDKISSVSKKWYDEIRNIIPTFKEDQVMYPFVQKVKDHLINN

How the values were obtained:
[1] = target: T1, Herpetosiphon aurantiacus HaXAL1 tyrosine ammonia lyase (Protein GI 159898407), SEQ ID NO: 2, His-tagged (N-terminal tag SEQ ID NO: 11); assay: In vitro kinetics of purified His-tagged HaXAL1 (tyrosine/phenylalanine ammonia lyase activity, absorbance at 315/295 nm); assay type: biochemical
Protocol: The tyrosine ammonia lyase activity may for instance be determined in accordance to the following method: Enzymatic assays are performed in 200 μL volumes in wells in a UV transparent 96-well plate, by following the increase in absorbance at 315 nm (pHCA) using spectrophotometry or HPLC with UV detection. The reaction mixtures contain 2 μg of purified protein and are initiated by adding 1 mM tyrosine or 6 mM after equilibration to 30° C. The enzymatic activity is calculated as U/g, where U is defined as μmol substrate converted per minute. Negative controls contain no purified protein. Kinetic constants Km and vmax are determined from assays containing 1.56 μM to 200 μM tyrosine. See also Kyndt et al. (2002).
Four of the enzymes were further purified by His-tag purification as follows. A DNA linker (5′ phosphorylated oligonucleotides CBJP559 and CBJP560, Table 5) was inserted in place of the sequence between the NdeI and BgIII site in plasmid pCDFDuet-1. This would result in the addition of the amino acids MAHHHHHHENLYFQ (SEQ ID NO: 11) to the N-terminal end of the polypeptides. […]
Enzymatic assays were performed in 200 μL volumes in wells in a UV transparent 96-well plate, by following the increase in absorbance at 315 nm (pHCA) or 295 nm (CA). […] The enzymatic activity was calculated as U/g, where U is defined as μmol substrate converted per minute.

[2] = tested on: E. coli BL21(DE3)pLysS cells; assay: Specific production of pHCA and CA by E. coli expressing TAL/PAL enzymes; assay type: cell-based, Escherichia coli; settings: 24 h after supplementation, +/- standard deviation
Protocol: Plasmids carrying the genes were transformed into electrocompetent E. coli BL21(DE3)pLysS cells (Life Technologies) and selected on LBplates containing 50 ug/mL streptomycin. The strains were grown in M9 minimal media containing glucose as a carbon source, and expression was induced by adding 1 mM IPTG at an optical density at 600 nm of 0.6. After three hours of growth at 30° C. the cultures were supplemented with 2 mM tyrosine, phenylalanine or histidine. After further 24 hours, samples were withdrawn for determination of the optical density at 600 nm and for the isolation of the supernatant.
The concentration of pHCA and CA in the supernatant was quantified by high performance (HPLC) and compared to chemical standards. HPLC was done on a Thermo setup using a HS-F5 column and mobile phases: 5 mM ammonium formate pH 4.0 (A) and acetonitrile (B) at 1.5 mL min-1, using a gradient elution starting at 5% B. From 0.5 min after injection to 7 min, the fraction of B increased linearly from 5% to 60%, and between 9.5 min and 9.6 the fraction of B decreased back to 5%, and remaining there until 12m pHCA and CA were quantified by measuring absorbance at 333 nm and 277 nm, respectively. The production was tested without addition of precursors or the addition of either phenylalanine or tyrosine to the growth medium.
The specific production was calculated as micromolar (μM) concentration per unit of optical density of the culture at 600 nm, and standard deviations were calculated based on triplicate experiments. HaXAL1, HaXAL2 and FjXAL are the most specific enzymes and those that reach the highest yields.

Molecule | Kcat ([1]; 30° C, 1.56 μM to 200 μM tyrosine or 193 μM to 25 mM phenylalanine) | TAL/PAL ([1]; ratio of Kcat/Km for Tyr over Phe) | Specific production of CA ([2]; M9 + His (2 mM)) | Specific production of pHCA ([2]; M9 + His (2 mM)) | Specific production of CA ([2]; M9 + Phe (2 mM)) | Specific production of pHCA ([2]; M9 + Phe (2 mM)) | Specific production of CA ([2]; M9 + Tyr (2 mM)) | Specific production of pHCA ([2]; M9 + Tyr (2 mM))
N[C@@H](Cc1ccc(O)cc1)C(=O)O [Tyr, tyrosine] | 0.0517 s⁻¹ | 540 |  |  |  |  |  | 
B1 |  |  | 0 ± 0 μM OD600-1 | 91 ± 20 μM OD600-1 | 0.5 ± 0.4 μM OD600-1 | 76 ± 29 μM OD600-1 | 0 ± 0 μM OD600-1 | 440 ± 100 μM OD600-1
